US20140255414A1 (PROBIODRUG, published 2014)
Square brackets hold non-standard residues; d marks the D form. pGlu = O=C1CC[C@@H](C(=O)O)N1; PEG = not defined here

Key:
[1] = biological target: T1, CCL8 (known as MCP-2) pyroglutamate-peptide (UniProt P80075 24-99, limits assumed, N-terminal pyroglutamate); test: SPR, peptide immobilized on CM5 chip (data not shown)
T1 sequence (peptide, looked up): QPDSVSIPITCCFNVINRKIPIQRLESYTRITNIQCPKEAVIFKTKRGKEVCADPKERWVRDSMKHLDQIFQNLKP

[2] = biological target: T2, big gastrin pyroglutamate-peptide (UniProt P01350 59-92, N-terminal pyroglutamate); test: as above
T2 peptide (looked up): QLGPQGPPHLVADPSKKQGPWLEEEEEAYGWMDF

[3] = biological target: T3, gonadoliberin pyroglutamate-peptide (UniProt P01148 24-33, N-terminal pyroglutamate); test: as above
T3 peptide (looked up): QHWSYGLRPG

[4] = biological target: neurotensin pyroglutamate-peptide (UniProt P30990 151-163, N-terminal pyroglutamate); test: as above
[5] = biological target: T4, orexin A pyroglutamate-peptide (UniProt O43612 34-66, N-terminal pyroglutamate); test: as above
T4 peptide (looked up): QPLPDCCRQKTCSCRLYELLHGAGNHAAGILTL

[6] = biological target: CCL2 (known as MCP-1) pyroglutamate-peptide (UniProt P13500 24-99, limits assumed, N-terminal pyroglutamate); test: as above
Aβ(pE11-18)-PEG peptide [7] = biological target: T5, Aβ(pE11-18)-PEG peptide (reading uncertain); test: ITC at 20 °C, peptide titrated into antibody eluted with KSCN gradient
T5 construct: The PEG attachment is not described further
T5 peptide: [pGlu]VHHQKLV-{PEG}
Method: The measurement of heat of reaction was performed at 20° C. Furthermore the heat of reaction was determined which was only generated by dilution of the antigen through the titration into ITC buffer (pH=7.1). Therefore the antigen was injected into the sample cell filled with ITC buffer. The heat of reaction which was generated during the titration of the antigen to the antibody was corrected about this value. The analysis of raw data and the determination of the association constant (KA), reaction stoichiometry (n), binding enthalpy (ΔH) and entropy (ΔS) was performed with Origin Software of MicroCal.
To characterize the binding of anti Aβ11(pE) antibody at the Aβ(pE11-18)-PEG peptide the method of Isothermal Titration calorimetry (ITC) was used (see section 1.3.4). The antibody which was eluted from protein G column with KSCN-gradient (pH 7.0) and 0.1 M glycine-HCl (pH 2.7) was analyzed. With ITC the reaction stoichiometry (N), association constant (KA), binding enthalpy (ΔH) as well as the entropy (ΔS) were determined. The peptide was titrated to anti Aβ11(pE) antibody in the ITC MicroCalorimeter as described in section 1.3.4.2. […] The reaction partners interact and heat is released or absorbed in direct proportion to the amount of binding events. Each injection of antigen leads to change of temperature. To compensate the temperature difference between the sample and reference cell the addition or removal of heat to the sample cell occurs and serves as measurement signal.
At first the heat of the Aβ(pE11-18)-PEG dilution in ITC buffer was determined (see FIG. 16, upper trace). […] Afterwards the peptide Aβ(pE11-18)-PEG was titrated to anti Aβ11(pE) antibody in the sample cell (see FIG. 16, lower trace). The total heat release after each injection was determined by integration of the area between each peak and baseline. Then the heat of dilution (see FIG. 16, upper trace) was subtracted from the total heat release of each injection.

AβpE(3-40) peptide = biological target: T6, AβpE(3-40) peptide (N-terminal pyroglutamate (Aβ position 3)); test: SPR, 1 µg/ml antibody over immobilized AβpE(3-40) against immobilized AβpE(11-30)
T6 construct: Immobilized on a CM5 chip at 1830 RU; also called Aβ3(pE); Aβ N3pE-40

Aβ(pE11-18)-PEG peptide [8] = biological target: T5, Aβ(pE11-18)-PEG peptide; test: ITC at 20 °C, peptide titrated into antibody eluted with 0.1 M glycine-HCl pH 2.7 (KD=1/KA)
Method: For the ITC experiment, the peptide Aβ(pE11-18)-PEG was used because the hydrophilic PEG group imparts hydrophilic properties and so it was possible to dissolve the peptide directly in ITC buffer. Former experiments with Aβ(pE11-20) could only be performed with 1-2% DMSO, due to the strong hydrophobicity of the peptide it was necessary to dissolve it with DMSO which could have an effect on the ITC binding properties. At first the antibody was dialyzed against ITC buffer (150 mM NaCl, 25 mM Na₂HPO₄, 25 mM KH₂PO₄, 1 mM EDTA, pH=7.1) over night at 4° C. The lyophilised peptide, stored at −20° C., was dissolved in identical ITC buffer pH=7.1 which was used for antibody dialysis. Both antibody and antigen must be in identical solutions, otherwise large heats of dilution will mask the desired observation. Before the ITC experiment, the concentration of antibody was determined by UV/VIS spectroscopy (see section 1.3.1). […] Furthermore the heat of reaction was determined which was only generated by dilution of the antigen through the titration into ITC buffer (pH=7.1). […]
To characterize the binding of anti Aβ11(pE) antibody at the Aβ(pE11-18)-PEG peptide the method of Isothermal Titration calorimetry (ITC) was used (see section 1.3.4). The antibody which was eluted from protein G column with KSCN-gradient (pH 7.0) and 0.1 M glycine-HCl (pH 2.7) was analyzed.

Chain of CCL2 (known as MCP-1) pyroglutamate-peptide (P13500 24-99 limits assumed): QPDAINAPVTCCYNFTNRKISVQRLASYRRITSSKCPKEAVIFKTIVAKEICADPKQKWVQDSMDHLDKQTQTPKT
T6 sequence (peptide, as listed by the source): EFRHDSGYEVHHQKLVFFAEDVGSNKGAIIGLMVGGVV

B1: monoclonal mouse anti Aβ11(pE) antibody Aβ 13-11-6 (clone 13), Deposit No. DSM ACC 3100 (antibody, V domains shown)
VH: QVQLQQPGTELVKPGASVKLSCKASGFTFTSYWMHWVRQRPGQGLEWIGEINPSNGRTNYNEKFKSKATLTVDKSSSTAYMQLSSLTSEDSEVYYCARGDLAWDWSAYWGQGTLVTVSA
VL: DIVMSQSPSSLAVSAGEKVTMSCKSSQSLFYSRTRKNYLAWYQQKPGQSPKLLIYWASTRESGVPDRFTGSGSGTDFTLTISSVQAEDLAVYYCKQSYNLWSFGGGTKLEIKR
notes: The KSCN-eluted and glycine-HCl-eluted preparations are the same molecule; also called pEVHH-59025 13-11-6; mAb mouse anti Aβ11(pE)
[1]
  binding result: no binding (tested: 1 µg/ml antibody)
[2]
  binding result: no binding (tested: 1 µg/ml antibody)
[3]
  binding result: no binding (tested: 1 µg/ml antibody)
[4]
  binding result: no binding (tested: 1 µg/ml antibody)
[5]
  binding result: no binding (tested: 1 µg/ml antibody)
[6]
  binding result: no binding (tested: 1 µg/ml antibody)
Aβ(pE11-18)-PEG peptide [7]
  -TΔS: -1.27 kcal/mol
  Ka: 1.27e+07 M⁻¹
  Stoichiometry (N): 1.88
AβpE(3-40) peptide
  cross reactivity relative to AβpE(11-30): 4 magnitudes lower
Aβ(pE11-18)-PEG peptide [8]
  Kd: 105 nM
